Substitutions are numbered along the chain they refer to.

Experiment [1] has as its target human IL-8 (human). Description: SPR, pH 7.4, 37C. In general terms: Surface plasmon resonance follows binding to a sensor surface in real time, without labels.
The target of experiment [2] is human IL-8 (human). As to the kind of experiment: SPR, pH 5.8, 37C.
Experiment [3] deals with human IL-8 (human). Description: SPR, pH 5.8.
Experiment [4] has as its target human IL-8 (human). As to the kind of experiment: SPR, pH 7.4.
Experiment [5] addresses human IL-8 (human). As to the kind of experiment: SPR, pH 7.4. This is another data set of the same source.
Experiment [6] concerns the target human IL-8 (human). Description: SPR, pH 5.8, 37C. The source holds these as a separate data set.
Experiment [7] has as its target human IL-8 (human). As to the kind of experiment: SPR, pH 5.8. The source holds these as a separate data set.

Sequence of human IL-8 (human) (chain, as listed by the source): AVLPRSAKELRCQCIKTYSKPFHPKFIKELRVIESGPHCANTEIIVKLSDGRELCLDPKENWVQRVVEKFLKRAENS

B1: H89/L16 (antibody, V domains shown)
VH: QVQLVESGGGLVQPGGSLRLSCAASGFTFSDYYLSWVRQAPGKGLEWVGLIRNKANGYTREYSASVKGRFTISRDDSKNSLYLQMSSLKTEDTAVYYCARENHRYDVELAYWGQGTLVTVSS
VL: DIQMTQSPSSLSASVGDRVTITCRASEIIYSYLAWYQQKPGKAPKLLIYNAKTHADGVPSRFSGSGSGTDFTFTISSLQPEDIATYYCQHHFGFPRTFGQGTKVEIKR
For B1, the dissociation constant Kd with human IL-8 [1] turned out to be 0.699 nM; in the experiment with human IL-8 [2] it was 35.1 nM.

B2: H89/L118 (antibody, V domains shown)
VH: B1 VH
VL: B1 VL with N50H, Q89K
For the molecule B2, the dissociation constant Kd amounted to 49 nM with human IL-8 [3]; 0.17 nM with human IL-8 [4]; 21.5 nM with human IL-8 [2]; 0.172 nM with human IL-8 [5]; 31.8 nM with human IL-8 [6]; 48.8 nM in the experiment with human IL-8 [7].

B3: H1009/L395 (antibody, V domains shown)
VH: B1 VH with A55D, G57Y, Y58H, R60P, Q84T, S87D
VL: B1 VL with N50K, Q89K
With B3, the Kd in the experiment with human IL-8 [3] was found to be 87 nM; with human IL-8 [4], 0.071 nM.

B4: Hr9/L16 (antibody, V domains shown)
VH: B1 VH with H103Y
VL: B1 VL
On to B4, for which the Kd with human IL-8 [1] worked out at 0.108 nM; in the experiment with human IL-8 [2], 5.04 nM.

For orientation: Kd means the constant that tells how readily two partners part at equilibrium.

Source of the values: patent publication US11780912 (dated 2023).
